The text below walks through data of the supplement of paper PMC9112550, “Optimization of the antimicrobial peptide Bac7 by deep mutational scanning” (BMC Biology, 2022).

The test system of this data set is Escherichia coli TOP10. In words: shrunken log2 fold change of peptide-encoding DNA abundance (4.5 h post-induction vs induction); higher = less antimicrobial activity (less host growth inhibition). The conditions noted are these: time post-induction: 4.5 h; library: site-saturation at positions 5, 18, 19, 20.
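Further: peptides expressed intracellularly from a pBAD plasmid library in pooled LB shake-flask culture, induced with 0.3% L-arabinose, DNA abundance read by NGS, three biological replicates, DESeq2 with apeglm shrinkage.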

On to RRIRGRPPRLPRPRPRPACYPRP, for which the “shrunken log2 fold change” value came to 0.896. In the case of RRIRERPPRLPRPRPRPNWWPRP it was 0.196; in that of RRIRLRPPRLPRPRPRPPIHPRP, -0.117; in that of RRIRLRPPRLPRPRPRPFGDPRP, -0.186. RRIRDRPPRLPRPRPRPRWQPRP: the “shrunken log2 fold change” value was 0.0899. In the case of RRIRSRPPRLPRPRPRPDMSPRP it was -0.0189. Consider RRIRNRPPRLPRPRPRPRLMPRP, for which the “shrunken log2 fold change” value was -0.142. To RRIRMRPPRLPRPRPRPDDWPRP belongs 3.03; to RRIRHRPPRLPRPRPRPKLHPRP, -0.271; to RRIRHRPPRLPRPRPRPTCRPRP, -0.232. Consider RRIRCRPPRLPRPRPRPVHQPRP, for which the “shrunken log2 fold change” value stood at 0.11. On to RRIRDRPPRLPRPRPRPLSDPRP, for which the “shrunken log2 fold change” value is 0.125. For the sequence RRIRLRPPRLPRPRPRPSSTPRP, the “shrunken log2 fold change” value is -0.278. As for RRIRARPPRLPRPRPRPFWPPRP, the “shrunken log2 fold change” value was determined as 0.412. In the case of RRIRLRPPRLPRPRPRPFNDPRP, the “shrunken log2 fold change” value stood at 0.0825. To RRIRYRPPRLPRPRPRPLPLPRP belongs -0.197; to RRIRWRPPRLPRPRPRPGPEPRP, 0.809. To RRIRSRPPRLPRPRPRPKQVPRP belongs 0.0497; to RRIRTRPPRLPRPRPRPGNAPRP, -0.0554.

With RRIRPRPPRLPRPRPRPVWDPRP, the “shrunken log2 fold change” value worked out at 0.212. For RRIRPRPPRLPRPRPRPYGRPRP, the “shrunken log2 fold change” value was -0.213.

As for RRIRRRPPRLPRPRPRPICCPRP, the “shrunken log2 fold change” value was 0.213. As for RRIRLRPPRLPRPRPRPYNIPRP, the “shrunken log2 fold change” value was -1.31. Regarding RRIRIRPPRLPRPRPRPYAIPRP, the “shrunken log2 fold change” value was -0.0122. Take RRIRQRPPRLPRPRPRPWYPPRP: the “shrunken log2 fold change” value was -0.278. In the case of RRIRYRPPRLPRPRPRPLNWPRP it was -0.594; in that of RRIRGRPPRLPRPRPRPHKPPRP, 0.388; in that of RRIRLRPPRLPRPRPRPEYMPRP, -0.741. In the case of RRIRKRPPRLPRPRPRPSITPRP it was 0.846; in that of RRIRGRPPRLPRPRPRPVANPRP, 0.623; in that of RRIRQRPPRLPRPRPRPLGTPRP, 0.139. With RRIRVRPPRLPRPRPRPIPNPRP, the “shrunken log2 fold change” value came out at 0.0329. In the case of RRIRNRPPRLPRPRPRPDCPPRP, the “shrunken log2 fold change” value is -0.031. To RRIRMRPPRLPRPRPRPSGAPRP belongs 1.13; to RRIRQRPPRLPRPRPRPPQPPRP, 1.1. In the case of RRIRPRPPRLPRPRPRPNRLPRP it was -0.0308; in that of RRIRSRPPRLPRPRPRPVTIPRP, -0.373; in that of RRIRHRPPRLPRPRPRPGVDPRP, -0.213. To RRIRDRPPRLPRPRPRPKQGPRP belongs 0.0662. On to RRIRHRPPRLPRPRPRPLDFPRP, for which the “shrunken log2 fold change” value was -0.342. To RRIRQRPPRLPRPRPRPCNNPRP belongs -0.255; to RRIRPRPPRLPRPRPRPKKAPRP, 0.129. For the sequence RRIRRRPPRLPRPRPRPIGHPRP, the “shrunken log2 fold change” value worked out at 0.113. To RRIRGRPPRLPRPRPRPMRQPRP belongs 0.453. In the case of RRIRYRPPRLPRPRPRPELVPRP, the “shrunken log2 fold change” value amounted to 0.25.

RRIRHRPPRLPRPRPRPKVNPRP: the “shrunken log2 fold change” value was -0.181. In the case of RRIRPRPPRLPRPRPRPFHPPRP, the “shrunken log2 fold change” value was -0.255. Consider RRIRVRPPRLPRPRPRPDNGPRP, for which the “shrunken log2 fold change” value amounted to 0.0214.

As to RRIRPRPPRLPRPRPRPVRTPRP, the “shrunken log2 fold change” value was determined as 0.385. To RRIRQRPPRLPRPRPRPPDVPRP belongs 0.124. For the sequence RRIRLRPPRLPRPRPRPWDVPRP, the “shrunken log2 fold change” value is -0.0498.

Regarding RRIRPRPPRLPRPRPRPYDLPRP, the “shrunken log2 fold change” value was -0.293. On to RRIRIRPPRLPRPRPRPDTLPRP, for which the “shrunken log2 fold change” value was -0.658.

Take RRIRFRPPRLPRPRPRPPCSPRP: the “shrunken log2 fold change” value was found to be 0.0952. For RRIRTRPPRLPRPRPRPTCIPRP, the “shrunken log2 fold change” value was -0.503. To RRIRPRPPRLPRPRPRPDCVPRP belongs -0.0187; to RRIRYRPPRLPRPRPRPRFWPRP, 0.184.

As for RRIRCRPPRLPRPRPRPMWKPRP, the “shrunken log2 fold change” value was -0.0547. As to RRIRMRPPRLPRPRPRPRDLPRP, the “shrunken log2 fold change” value stood at 0.266. To RRIRCRPPRLPRPRPRPITSPRP belongs 0.0215; to RRIRWRPPRLPRPRPRPAEHPRP, -0.0393; to RRIRYRPPRLPRPRPRPGLRPRP, 0.0396. For RRIRRRPPRLPRPRPRPPVKPRP, the “shrunken log2 fold change” value was found to be 0.369. In the case of RRIRSRPPRLPRPRPRPDGAPRP it was 0.289; in that of RRIRHRPPRLPRPRPRPNTDPRP, -0.438. On to RRIRKRPPRLPRPRPRPSIYPRP, for which the “shrunken log2 fold change” value was -0.353. To RRIRPRPPRLPRPRPRPEVMPRP belongs 0.462; to RRIRKRPPRLPRPRPRPIGYPRP, -0.0204; to RRIRERPPRLPRPRPRPMARPRP, 0.116. With RRIRSRPPRLPRPRPRPAEEPRP, the “shrunken log2 fold change” value stood at 0.164.

For RRIRWRPPRLPRPRPRPTGWPRP, the “shrunken log2 fold change” value was found to be 0.594.

As to RRIRQRPPRLPRPRPRPSWRPRP, the “shrunken log2 fold change” value worked out at 0.0854. With RRIRQRPPRLPRPRPRPADDPRP, the “shrunken log2 fold change” value was -0.01.

In the case of RRIRLRPPRLPRPRPRPVFCPRP, the “shrunken log2 fold change” value was 0.14.

In the case of RRIRCRPPRLPRPRPRPRGFPRP, the “shrunken log2 fold change” value is 0.249. In the case of RRIRPRPPRLPRPRPRPDRAPRP it was 0.622. Take RRIRPRPPRLPRPRPRPGCPPRP: the “shrunken log2 fold change” value turned out to be 0.0239.

On to RRIRLRPPRLPRPRPRPIDEPRP, for which the “shrunken log2 fold change” value is -0.178. Consider RRIRSRPPRLPRPRPRPILGPRP, for which the “shrunken log2 fold change” value was -0.016. Regarding RRIRMRPPRLPRPRPRPPIVPRP, the “shrunken log2 fold change” value was -0.112. To RRIRNRPPRLPRPRPRPSCHPRP belongs 1.83.

In the case of RRIRSRPPRLPRPRPRPPPKPRP, the “shrunken log2 fold change” value worked out at 0.708. To RRIRMRPPRLPRPRPRPNKIPRP belongs 0.0176. For RRIRNRPPRLPRPRPRPHLRPRP, the “shrunken log2 fold change” value was -0.447. As for RRIRYRPPRLPRPRPRPFKNPRP, the “shrunken log2 fold change” value was -0.426. In the case of RRIRTRPPRLPRPRPRPSTWPRP it was -0.176; in that of RRIRIRPPRLPRPRPRPRFWPRP, 0.345; in that of RRIRCRPPRLPRPRPRPKGIPRP, 0.0519. RRIRARPPRLPRPRPRPNKAPRP: the “shrunken log2 fold change” value was 0.00219.

Turning to RRIRIRPPRLPRPRPRPCSIPRP, the “shrunken log2 fold change” value was -0.012. In the case of RRIRNRPPRLPRPRPRPWLTPRP it was -0.0905; in that of RRIRDRPPRLPRPRPRPSSWPRP, -0.0298. RRIRNRPPRLPRPRPRPLWEPRP: the “shrunken log2 fold change” value was -0.106. To RRIRQRPPRLPRPRPRPRRYPRP belongs 0.112. RRIRIRPPRLPRPRPRPMDKPRP: the “shrunken log2 fold change” value was -0.448. Consider RRIRLRPPRLPRPRPRPRNSPRP, for which the “shrunken log2 fold change” value was -0.051. On to RRIRRRPPRLPRPRPRPHRHPRP, for which the “shrunken log2 fold change” value was determined as 0.0704.

RRIRYRPPRLPRPRPRPAGNPRP: the “shrunken log2 fold change” value was -0.601.

Take RRIRFRPPRLPRPRPRPVLCPRP: the “shrunken log2 fold change” value is -0.221.

On to RRIRQRPPRLPRPRPRPWHGPRP, for which the “shrunken log2 fold change” value stood at 0.0373.

On to RRIRMRPPRLPRPRPRPWRKPRP, for which the “shrunken log2 fold change” value came out at 0.506. With RRIRHRPPRLPRPRPRPTINPRP, the “shrunken log2 fold change” value was -0.459. To RRIRTRPPRLPRPRPRPRKSPRP belongs -0.0508; to RRIRYRPPRLPRPRPRPKRGPRP, 0.00607; to RRIRGRPPRLPRPRPRPWMFPRP, 0.0448. To RRIRSRPPRLPRPRPRPLFWPRP belongs 0.132; to RRIRWRPPRLPRPRPRPVSKPRP, 0.0519. Take RRIRDRPPRLPRPRPRPHNPPRP: the “shrunken log2 fold change” value was -0.231. RRIRWRPPRLPRPRPRPHGTPRP: the “shrunken log2 fold change” value is -0.137. In the case of RRIRYRPPRLPRPRPRPVLWPRP it was 0.0894; in that of RRIRDRPPRLPRPRPRPISWPRP, 0.0803.

Regarding RRIRPRPPRLPRPRPRPWIIPRP, the “shrunken log2 fold change” value was -0.919.

Take RRIRYRPPRLPRPRPRPQPWPRP: the “shrunken log2 fold change” value is -0.149. In the case of RRIRSRPPRLPRPRPRPRGIPRP it was -0.33; in that of RRIRHRPPRLPRPRPRPQIVPRP, -0.238; in that of RRIRGRPPRLPRPRPRPCSGPRP, -0.111. In the case of RRIRKRPPRLPRPRPRPTDYPRP it was 0.124. As for RRIRCRPPRLPRPRPRPSDNPRP, the “shrunken log2 fold change” value is -0.66. To RRIRVRPPRLPRPRPRPFNFPRP belongs -1.01.

As for RRIRARPPRLPRPRPRPQIDPRP, the “shrunken log2 fold change” value amounted to 0.427. To RRIRGRPPRLPRPRPRPITAPRP belongs 0.236; to RRIRMRPPRLPRPRPRPRYPPRP, 0.0438; to RRIRMRPPRLPRPRPRPTICPRP, 0.0136. To RRIRRRPPRLPRPRPRPREGPRP belongs 1.33; to RRIRMRPPRLPRPRPRPHISPRP, -0.0571.
